Patent publication US20240325557A1, “TREATMENT OF CANCER” (INNATE PHARMA, priority 2020, published 2024)

Key:
[1] = molecular target: HER2 on SUM185 and SUM190 human breast cancer tumor cells (human) (UniProt P04626); assay: flow cytometry on SUM185 cells, antibody at 10 µg/ml
[2] = molecular target: HER2 on SUM185 and SUM190 human breast cancer tumor cells (human) (UniProt P04626); assay: flow cytometry on SUM190 cells, antibody at 10 µg/ml

Q: How did the MFI (median fluorescence units) [1] turn out when “Anti-Her2 antibody trastuzumab modified as human IgG1 isotype containing a N297Q mutation” was run?
A: 2880

Q: And the MFI (median fluorescence units) [2]?
A: 1780
